From paper PMC6477179 come the findings set out here.

Sequences and labels used below:
B1: GFP-FIP200 CTR aa 1458-1594 [human] / GST-p62 FIR 4P [human] (parent)
chain 1: RIMLLERTLQLKEEENKRLNQRLMSQSMSSVSSRHSEKIAIRDFQVGDLVLIILDERHDNYVLFTVSPTLYFLHSESLPALDLKPGEGASGASRRPWVLGKVMEKEYCQAKKAQNRFKVPLGTKFYRVKAVSWNKKV
chain 2: MESDNCSGGDDDWTHLSSKEVDPDTGELQSLQMPESEGPDDLDPDQEGPTGLKEA

Variants of B1 are the subject of this assay. Briefly: GSH bead recruitment assay imaged by microscopy. The note with it: with GST-p62 FIR 4P [human];; read off a plot.
On to chain 1 L78F, for which the percent of parent came out at 92%.

On to chain 1 L78A, for which the percent of parent came to 100%.

As to chain 1 S75A, the percent of parent turned out to be 83%.

chain 1 N60F: the percent of parent was determined as 56%.

As to chain 1 N60A, the percent of parent is 95%.

With chain 1 R116D, the percent of parent was found to be 21%.

For chain 1 R127A, the percent of parent was 21%.

For the variant chain 1 F117W, the percent of parent amounted to 80%.

In the case of chain 1 F117A, the percent of parent was 19%.
